Assays:
[1] = target: T1, receptor-binding domain (RBD) of the wild-type SARS-CoV-2 spike protein (SARS-CoV-2, UniProt P0DTC2 333-527); test: cell-based or functional assay
[2] = target: T1, receptor-binding domain (RBD) of the …; test: BLI; details: both partners purified

B1: hRBD8 (antibody, V domains shown)
VH: QVQLQQWGAGRLKPSETLSLTCAVYGGSFSGYYWSWIRQPPGKGLEWIGEIDHSGSTNYNSSLKSRVTISVDTSKKWFSLKLSSVTAADTAVYYCARAHLIGDCGGGRCYSGPDPSNWFDPWGQGTLVTVSS
VL: SSELTQDPAVSVALGQTVRITCQGDSLRSYYASWYQQKPGQAPILVIYGKDNRPSGIPDRFSGSSSENTASLTITGAQAEDEADYYCNCRDTSGNHPVFGGGTKLTVL
Work on B1 yielded an other [1] of 49.6 ng/mL and a Kd [2] of 9.74 nM.

B2: hRBD9 (antibody, V domains shown)
VH: EVQLVESGGGLIQPGGSLRLSCAASGLTVSSNYMNWVRQAPGKGLEWVSVLYSGGSTYYADSVKGRFTISRDNSKNTLYLQMNSLRAEDTAVYYCARDLVAYGMDVWGQGTTVTVSS
VL: DIQLTQSPSFLSASVGDRVTITCRASQGISSDLAWYQQKPGKAPKLLIYAASTLQSGVPSRFSGSGSGTEFTLTISSLQPEDFATYYCQQLNSYPTFGQGTRLEIK
With B2 the other [1] was 20.2 ng/mL and the Kd [2] was 0.126 nM.

B3: hRBD13 (antibody, V domains shown)
VH: QVQLVESGGGVVQPGRSLRLSCAVSGFTFRNYGMDWVRQAPGKGLEWVAVISYDGSNKYYADSVKGRFTISRDNSKNTLFLHLNSLRAEDTAVYYCAKAGGGPYCGGGNCYMHYFDYWGQGTQVTVSS
VL: DIQMTQSPSSLSASVGDRVTITCQASQDINNYLNWYQQKPGKAPKLLIYDASNLETGVPLRFSGSGSATHFSFTISSLQPEDIATYYCQQYDHLPCTFGQGTKLEIR
B3 showed an other [1] of 48600 ng/mL and a Kd [2] of less than 0.001 nM.

B4: hRBD12 (antibody, V domains shown)
VH: EVQLVESGGGLVQPGGSLRLSCAASGLTVSSNYMSWVRQAPGKGLEWVSVIYSGGSTYYADSVKGRFTISRDNSKNTLYLLMNSLRAEDTAVYYCARDLQQLGGMDVWGQGTTVTVSS
VL: not shown
With B4 the other [1] was 20.8 ng/mL and the Kd [2] was 0.219 nM.

B5: hRBD15 (antibody, V domains shown)
VH: QVQLVQSGAEVKKPGASVKVSCKASGYTFTSQYMHWVRQAPGQGLEWMGIINPSGGSTSYAQKFQGRVTMTSDTSTSTVYMELSSLRSEDTAVYYCARDIYFVPARGGFDPWGQGTLVTVSS
VL: EIVLTQSPGTLSLSPGERATLSCRASQSIISSYLAWYQQKPGQAPRLLIYGASSRATGIPDRFSGSGSGTDFTLTISRLEPEDFAVYYCQQSGSAPRYTFGQGTKLEIK
B5 was tested, and the other [1] was 64400 ng/mL and the Kd [2] was 0.0382 nM.

B6: hRBD5 (antibody, V domains shown)
VH: QVQLQQWGAGLLQPSETLSLTCAVYGGSFSDYYWSWIRQPPGRGLEWIGEIDHSGSTNYNPSLKSRVTILVDTSKNQFSLKLSSVTAADTAVYYCARAHLIGHCGDGGCYSGPDPSSWFDPWGQGTLVIVSS
VL: SSELTQDPAVSVALGQTVRITCQGDSLRRYFASWYQQKPGQAPVLVIYGKNIRPSGIPDRFSGSSSGNTGSLTITGAQAEDEADYYCHSRDSSGHHPLFGGGTKLTVL
Work on B6 yielded an other [1] of 10.7 ng/mL and a Kd [2] of 0.127 nM.

B7: hRBD6 (antibody, V domains shown)
VH: QVQLQQWGAGLLKPSETLSLSCAVYGGAFSDYYWSWIRQPPGKGLEWIGEIDLSGSTNYNPSLKSRVTISVDTSKNQFSLKLISVTAADTAVYYCARTHLIGYCSGGSCYSGPDPSNWFDPWGQGTLVTVSS
VL: SSELTQDPAVSVALGQTVRITCQGDSLRSYYASWYQQKPGQAPVLVIYGKNNRPSGIPDRFSGSSSGNTASLTITGAQAEDEADYYCNSRDTSGHHPVFGGGTKLTVL
For B7, the other [1] was 32.7 ng/mL and the Kd [2] was 5.09 nM.

B8: hRBD3 (antibody, V domains shown)
VH: QLQLQESGPRLVRPSETLSLTCTVSGGSINSGTHYCGWIRQSPGKGLEWIGSIYYSGTTYYNPSLKSRVTISVDTSKNQFSLKLSSVTAADTAVYFCARRRAGSYFKDLSDYWGQGTLVTVSS
VL: NFMLTQPHSVSESPGKTVTISCTRSSGSIASNYVQWYQQRPGGAPTTVIYEDNQRPSGVPDRFSGSIDTSSNSASLTISGLKTDDEADYYCQSYDSTNHEVFGGGTKLTVL
In the case of B8, the other [1] is reported as 11.6 ng/mL and the Kd [2] is reported as less than 0.001 nM.

B9: hRBD4 (antibody, V domains shown)
VH: QLQLQESGPGLVKPSETLSLTCTVSGGSISTSSHYCAWIRQPPGKGLEWIGSIYYRGSTYYNPSLKSRVTISVDTSKNHFSLKLSSVTAADTAVYYCARRRAGSYYKDLFDYWGQGTLVTVSS
VL: NFMLTQPHSVSESPGKTVTISCTRSSGSIASNYVQWYQQRPGSAPTTVIYEDNQRPSGVPDRFSGSIDSSSNSASLTISGLKTEDEADYYCQSYDNSNHEVFGGGTKLTVL
Binder B9 has an other [1] of 8.9 ng/mL and a Kd [2] of 0.491 nM.

Source: publication PMC12167710 (Nature Biotechnology, 2024)
